Laboratory results as given in publication PMC6819324.

Molecular target: T1, AdpAlin (Streptomyces lincolnensis NRRL 2936) (UniProt A0A1B1M9Y0)
T1 sequence: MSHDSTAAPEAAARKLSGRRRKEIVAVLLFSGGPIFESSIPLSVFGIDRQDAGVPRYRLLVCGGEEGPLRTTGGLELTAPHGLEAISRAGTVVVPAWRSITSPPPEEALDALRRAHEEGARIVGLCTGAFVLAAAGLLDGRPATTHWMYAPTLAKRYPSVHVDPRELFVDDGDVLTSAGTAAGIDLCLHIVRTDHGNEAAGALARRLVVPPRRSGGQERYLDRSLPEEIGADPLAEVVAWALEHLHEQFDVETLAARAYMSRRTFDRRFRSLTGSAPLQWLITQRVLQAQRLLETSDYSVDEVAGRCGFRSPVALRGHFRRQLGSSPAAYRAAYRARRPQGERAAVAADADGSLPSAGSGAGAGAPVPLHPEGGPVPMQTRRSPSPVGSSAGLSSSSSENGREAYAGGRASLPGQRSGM
Experiment: EMSA
Settings: EMSA: 20 mM Tris-HCl pH 7.5, 5% glycerol, 0.1% BSA; 2.5 nM 5'-biotin probe; AdpAlin 0-6.4 uM (12.8 uM for probe-neg); 200-fold unlabeled competitor; salt and …

Sequence: AGCCAGTGACGATAAGCGACCACCTGGGTCTCGCCCTGACCGTAGATCTTCGACAGATCCGTGGCACGCGCCGCCACTGCGGTGGTCCGGCCGACGATGGGTGTGGTGGTCACGAGAGGGCACTCCTGGGAACGACGACTGGGGGAATACCTCCATCGTCGCCGCCGCGGAGCGCCGTGTAGTCAGCCGCTGTTCCCTTATCGTCACTGGCT (double strand) [bldAp-N]
- binding: no binding

Sequence: AGCCAGTGACGATAAGCGAGACAAGCAATCGGCTTCACGCCCTGTCAAGCGGCAGCAGACGGCTTCCCGTAATTCCTGGAAGTTATCCGGGAGTCGGCGCGAACGGCCCTCGATATCCGGTGCATTACCTGGGAATAGGGAATAGGGAACCGGTAATCCGCGGTCGGGGCAAGCGTCTGGGTGCGTGGACTTATCGTCACTGGCT (double strand) [mlmbAp-A]
- binding: no binding

Sequence: AGCCAGTGACGATAAGCGAGACAAGCAATCGGCTTCACGCCCTGTCAAGCGGCAGCAGACGGCTTCCCGTAATTCCTGGAAGTTATCCGGGAGTCGGCGCGAACGTGCCGCCACGGCCCTCGATATCCGGTGCATTACCTGGGAATAGGGAATAGGGAACCGGTAATCCGCGGTCGGGGCAAGCGTCTGGGTGCGTGGACTTATCGTCACTGGCT (double strand) [lmbAp-A]
- binding: binds

Sequence: AGCCAGTGACGATAAGCGGGGACACACAGGGGTGGGCGGCACGGTGGGGGAAATACACCGGTCGGCTGACCGGTTTCCGCGCACGCGCCCGACTCTTTTCAGCCAACTTCCGACCACCGGGCATCCTTGTGTCCAACCACCCCCCAACCCCCGTTTGACCTGCACGGAAAGGGTCCCCACTTATCGTCACTGGCT (double strand) [adpAp-B-1]
- binding: no binding

Sequence: AGCCAGTGACGATAAGCGTGTCTGCATTCCACCATCCGGGCAGGCCATGGGCTCCGCATCGAGGTTCCCGAGCCTATCGGGACGCCTCCCCCCAACAGGGGTCGGGTGGCCCGATGTTGTCTTATTTTATTGAGTTCTGAGGGAGCCTTATCGTCACTGGCT (double strand) [bldAp-A]
- binding: binds

Sequence: AGCCAGTGACGATAAGCTATAGGCTTCGCGGGCTTCGAACTCCGCAGCCGCCACGCCGACTTCGACGGTGCCGCCTACCGCCCGGACAGCCGCTACCACGTGTCCGTCTACGCCCGGGCGCACGGTGACTAGGGCGCGACGGCTCGCCGCCGCCGCGTTCCGGGCCTTATCGTCACTGGCT (double strand) [mlmbKp-B]
- binding: no binding

Sequence: AGCCAGTGACGATAAGGCGTTTACCTAGAACAAATCCGGGGCAAGCTCGCTCAGCTGTCGCCATGGGCGCCCTGACGCCACTGCGGCCCACGGATCGCCCCGTCAGCAAACTGGCCGAATGCCAACGGCATACGGCCAGTTCCTGACGCGGGCCACGGGGTTCACTCCGCGGACCACGCGTGCGGCGGCCGCCTCACTTATCCCGATGAGGCCACGCGTCGTCCGCCTCCGCGATCTCCTCCAGGGTTCCGTCCTTATCGTCACTGGCT (double strand) [lmbUp-C]
- binding: binds

Sequence: AGCCAGTGACGATAAGGGCCACACGTCGTAGACATCTGCGATCTTGTCACCGTAGAGCTTCGCGAAATCATGGTCGGACATTGAATTCTCTTTCCTCACCAGGACGTTGGCCACTCGGCGAGCGGCCGCAGGGAGACGGTGGCATGGGACGCGAGGGACAGTCGACACGGCAGCCGGTACCGGCGGTGTTCTTCGACCGGGACGGCGCTTATCGTCACTGGCT (double strand) [lmbJp-A]
- binding: binds

Sequence: AGCCAGTGACGATAAGGGCCACACGTCGTAGACATCTGCGATCTTGTCACCGTAGAGCTTCGCGAAATCATGGTCGGACATTGAATTCTCTTTCCTCACCAGGCTCGGCGAGCGGCCGCAGGGAGACGGTGGCATGGGACGCGAGGGACAGTCGACACGGCAGCCGGTACCGGCGGTGTTCTTCGACCGGGACGGCGCTTATCGTCACTGGCT (double strand) [mlmbJp-A]
- binding: no binding

Sequence: AGCCAGTGACGATAAGGGCGTAGACGGACACGTGGTAGCGGCTGTCCGGGCGGTAGGCGGCACCGTCGAAGTCGGCGTGGCGGCTGCGGAGTTCGAAGCCCGCGAAGCGGGCCATCAGGTCCAGCTCCGTGGGGTGCTTATCGTCACTGGCT (double strand) [lmbKp-B]
- binding: binds

Sequence: AGCCAGTGACGATAAGGGTTCCCGTGGTGCTCCTCTGGTACGGCACCTCGCTCGCCGGCGCCGCCGGCACCGCGCTCGGACTGGCCGCCGTCACCGCCGTCTGCCGTATCCTCCTGCGCCAGTCGGAGCGCGGTGCGGCACGGCTACTGGCCGAAGAACGGGCCCCCCATCGCGGCCACCGCCACCGGGCCGGAACGGGGACACACAGGGGTGGGCGCTTATCGTCACTGGCT (double strand) [adpAp-B-2]
- binding: binds

Sequence: AGCCAGTGACGATAAGTCGGACGAGGACGACGACAACCCCGCGGACGACCCGACAGGACTCGGCGAACGCCGCGTCTGCATCGGCACCGGCCCGCCCTCCGGATGCAGCGGAACCGGCGCACCGGCACCCGCCCCCGATCCGGCGGACGGCAAGGACCCGTCAGCGTCCTTATCGTCACTGGCT (double strand) [probe-neg]
- binding: no binding

Sequence: AGCCAGTGACGATAAGTCTACTGTGTCGCGTGATGCCGGAGTGACCAGTTCGTCATCCGGCAGATTGTCGACTTGGCAACTTGGCGTGAAGCATTCGATCACGAAGCGTTGCACTCGTGGGGCGTGCAGGGAAGTGCGCCTTGTCGCAGTGGCCAATCCACGTAGGGTGCGCTTATCGTCACTGGCT (double strand) [adpAp-A]
- binding: binds

Sequence: AGCCAGTGACGATAAGTGATCCGTACTTGATACATTGGCCGTTACATGTATCGGAGTTCCGAGGGGGGGCAATGATGCTGGTTCCGCCAAGCCATTCATGAGCTGCTCGCCTGCGCCGCCCTTCGTGGCGGTGGCGCGACATCGATGAGCGTGGTGGGCGCCGAACAACGGGGGTGAATCGCTGCTTCTTATCGTCACTGGCT (double strand) [lmbUp-A]
- binding: binds
